For this assay, the target named is SARS-CoV-2 spike D614G (pseudovirus) (SARS-CoV-2) (UniProt P0DTC2). Kind of assay: cell-based or functional assay.

In the case of REGN10933 (antibody), the PSV in HeLa-ACE2 cells IC50 was 0.009 µg/mL.

The substance REGN10987 (antibody) returned a PSV in HeLa-ACE2 cells IC50 of 0.019 µg/mL.
